How the values were obtained:
[1] = biological target: complement factor H (purified CFH) (UniProt P08603); assay: flow cytometry on cells
[2] = biological target: MDA-modified low density lipoprotein; assay: ELISA
[3] = biological target: MAA-modified bovine serum albumin (bovine) (UniProt P02769); assay: ELISA

Substance: MAA-modified bovine serum albumin (from UniProt P02769 25-607)
- percent competition of the binding of CFH to apoptotic blebs [1]: > 60%

Substance: CFH variant H402 (from UniProt P08603 19-1231) (natural protein)
- reduction of binding against plasma homozygous for the Y402 allele [2]: 52%

Substance: complement factor H (purified CFH) (from UniProt P08603 19-1231) (natural protein)
- Kd [3]: 64 nM

Source: publication PMC4826616
